Tests used:
hIL-13 [1] = biological target: T1, hIL-13 (human, UniProt P35225 35-146, limits assumed); test: cell-based or functional assay
hIL-13 [2] = biological target: T1, hIL-13; test: cell-based or functional assay; remark: listed apart in the source
hIL-13 [3] = biological target: T1, hIL-13; test: cell-based or functional assay; remark: listed apart in the source
hIL-13 [4] = biological target: T1, hIL-13; test: cell-based or functional assay; remark: listed apart in the source
hIL-13 [5] = biological target: T1, hIL-13; test: ELISA
hIL-13 [6] = biological target: T1, hIL-13; test: cell-based or functional assay; remark: listed apart in the source
[7] = biological target: T2, Recombinant Cynomolgus IL-13 Protein, His Tag (SINO BIOLOGICAL, Cat. 11057-C07H) (cynomolgus monkey, UniProt Q5I6E4 19-132 (Macaca thibetana entry)); test: SPR (Biacore 8K), mAb captured on Protein G chip, IL-13 as analyte
T2 construct: also called Cyno IL-13; cynomolgus monkey IL-13
T2 chain: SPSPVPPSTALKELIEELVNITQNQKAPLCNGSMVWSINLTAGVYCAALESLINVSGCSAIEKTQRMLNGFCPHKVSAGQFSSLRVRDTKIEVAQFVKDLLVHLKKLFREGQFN
Experimental: (§1) Samples were injected in a multi-cycle manner over freshly captured mAb, by regenerating the capture surfaces with injection of glycine pH 1.5 for 30 sec at a flow rate of 30 μL/min. The data was processed and analyzed with Biacore Insight Evaluation Software Version 2.0.15.12933 (GE Healthcare) as follows. […] The responses from the two buffer blank injections were then subtracted from the reference subtracted data (2-1) to yield double-referenced data, which were fit to an 1:1 binding model to determine the apparent association (ka) and dissociation rate constants (kd). Their ratio provided the apparent equilibrium dissociation constant or affinity constant (KD=kd/ka).

[8] = biological target: T3, Recombinant Human IL-13 Protein, His Tag (Acro Cat. IL3-H52H4) (human, UniProt P35225 35-146); test: as above
T3 construct: Bought protein; also called Hu IL-13; not shown: His Tag
T3 sequence (P35225 other isoform, or with tags, fused parts or gaps limits assumed): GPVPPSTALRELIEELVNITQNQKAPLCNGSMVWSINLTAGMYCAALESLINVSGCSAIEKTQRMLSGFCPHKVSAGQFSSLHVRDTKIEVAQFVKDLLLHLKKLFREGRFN
Experimental: as §1

biotinylated hIL-13 = biotinylated hIL-13 (human, UniProt P35225 35-146, limits assumed, biotinylated (site not stated)); test: FACS; blockade of biotinylated hIL-13 (0.05 ug/mL) binding to HEK293 cells expressing hIL-13Rα1/hIL-4Rα
Chain of biotinylated hIL-13 (P35225 other isoform, or with tags, fused parts or gaps limits assumed): as above
Experimental: Briefly, HEK293 previously transduced to stably express both hIL-13Rα and hIL-4Rα were cultured and harvested. Cells were seeded at 200,000 cells in 100 uL per well. Cells were washed and the supernatant was discarded. […] The cells were stained in this mixture at 4° C. for 1 hour. […] Cells were incubated at 4° C. for 1 hour, protected from light. Cells were then washed and the median fluorescence intensity (MFI) of cells in each well were recorded by FACS using a BD FACSCanto II. Subsequent data were analyzed using GraphPad Prism.

hIL-13 [9] = biological target: T1, hIL-13; test: cell-based or functional assay; remark: listed apart in the source

T1 sequence (P35225 other isoform, or with tags, fused parts or gaps limits assumed): as above

B1: Construct 141 (antibody, human IgG1, kappa, L234A L235A)
heavy: EVQLQESGPGLVKPSETLSLTCTVSGFSLNAYSVNWIRQPPGKGLEWLGMIWGDGKIVYNSALKSRLTISKDSSKNQVSLKLSSVTAADTAVYYCAGDGYYPYAMDNWGQGTTVTVSSASTKGPSVFPLAPSSKSTSGGTAALGCLVKDYFPEPVTVSWNSGALTSGVHTFPAVLQSSGLYSLSSVVTVPSSSLGTQTYICNVNHKPSNTKVDKKVEPKSCDKTHTCPPCPAPEAAGGPSVFLFPPKPKDTLYITREPEVTCVVVDVSHEDPEVKFNWYVDGVEVHNAKTKPREEQYNSTYRVVSVLTVLHQDWLNGKEYKCKVSNKALPAPIEKTISKAKGQPREPQVYTLPPSRDELTKNQVSLTCLVKGFYPSDIAVEWESNGQPENNYKTTPPVLDSDGSFFLYSKLTVDKSRWQQGNVFSCSVMHEALHNHYTQKSLSLSPG
light: DIQLTQSPSSLSASVGDRVTITCRASKSVDSYGNSFMHWYQQKPGKAPKLLIYLASELESGVPSRFSGSGSGTDFTLTISSLQPEDFATYYCQQNNEDPRTFGGGTKVEIKRTVAAPSVFIFPPSDEQLKSGTASVVCLLNNFYPREAKVQWKVDNALQSGNSQESVTEQDSKDSTYSLSSTLTLSKADYEKHKVYACEVTHQGLSSPVTKSFNRGEC
notes: also called HC1; LC6_m8
CCL2 Secretion IC50 (HaCaT cells) (hIL-13 [1]): 0.075 nM | CCL26 Secretion IC50 (HaCaT cells) (hIL-13 [1]): 0.055 nM | NTRK1 Expression IC50 (HaCaT cells) (hIL-13 [1]): 0.054 nM | TARC Inhibition IC50 (A549 cells) (hIL-13 [2]): 0.73 nM | pSTAT6 Inhibition IC50 (HT-29 cells) (hIL-13 [3]): 0.25 nM | TF-1 Proliferation Inhibition IC50 (hIL-13 [4]): 0.19 nM | Kd (hIL-13 [5]): 0.025 nM | CD23 Expression Inhibition IC50 (human PBMCs) (hIL-13 [6]): 0.86 nM | pSTAT6 Inhibition IC50 (human PBMCs) (hIL-13 [6]): 0.41 nM | Kd [7]: 0.329 nM | Kd [8]: 0.107 nM | IC50 (biotinylated hIL-13): 0.81 nM

B2: Construct 137 (antibody, human IgG1, kappa, L234A L235A)
heavy: EVQLLESGGGLVQPGGSLRLSCAASGFSLNAYSVNWVRQAPGKGLEWLGMIWGDGKIVYNSALKSRLTISKDSSKNTVYLQMNSLRAEDTAVYYCAGDGYYPYAMDNWGQGTTVTVSSASTKGPSVFPLAPSSKSTSGGTAALGCLVKDYFPEPVTVSWNSGALTSGVHTFPAVLQSSGLYSLSSVVTVPSSSLGTQTYICNVNHKPSNTKVDKKVEPKSCDKTHTCPPCPAPEAAGGPSVFLFPPKPKDTLYITREPEVTCVVVDVSHEDPEVKFNWYVDGVEVHNAKTKPREEQYNSTYRVVSVLTVLHQDWLNGKEYKCKVSNKALPAPIEKTISKAKGQPREPQVYTLPPSRDELTKNQVSLTCLVKGFYPSDIAVEWESNGQPENNYKTTPPVLDSDGSFFLYSKLTVDKSRWQQGNVFSCSVMHEALHNHYTQKSLSLSPG
light: DIQLTQSPSSLSASVGDRVTITCRASKSVDSYGNSFMHWYQQKPGKAPKLLIYLASELESGVPSRFSGSGSGTDFTLTISSLQPEDFATYYCQQNNEDPRTFGGGTKVEIKRTVAAPSVFIFPPSDEQLKSGTASVVCLLNNFYPREAKVQWKVDNALQSGNSQESVTEQDSKDSTYSLSSTLTLSKADYEKHKVYACEVTHQGLSSPVTKSFNRGEC
notes: also called HC5; LC6_m8
TARC Inhibition IC50 (A549 cells) (hIL-13 [2]): 0.87 nM | pSTAT6 Inhibition IC50 (HT-29 cells) (hIL-13 [3]): 0.33 nM | TF-1 Proliferation Inhibition IC50 (hIL-13 [4]): 0.16 nM | Kd (hIL-13 [5]): 0.026 nM | CD23 Expression Inhibition IC50 (human PBMCs) (hIL-13 [6]): 1.01 nM | pSTAT6 Inhibition IC50 (human PBMCs) (hIL-13 [6]): 0.44 nM | Kd [7]: 0.246 nM | Kd [8]: 0.0421 nM | IC50 (biotinylated hIL-13): 0.89 nM

B3: Construct 96 (antibody, human IgG1, kappa, V domains shown)
VH: EVQLLESGGGLVQPGGSLRLSCAASGFSLNAYSVNWVRQAPGKGLEWLGMIWGDGKIVYNSALKSRLTISKDSSKNTVYLQMNSLRAEDTAVYYCAGDGYYPYAMDNWGQGTTVTVSS
VL: DIQLTQSPSSLSASVGDRVTITCRASKSVDSYGNSFMHWYQQKPGKAPKLLIYLASDLESGVPSRFSGSGSGTDFTLTISSLQPEDFATYYCQQNNEDPRTFGGGTKVEIKR
TARC Release IC50 (A549 cells) (hIL-13 [9]): 1 nM

B4: Construct 98 (antibody, human IgG1, kappa)
heavy: EVQLLESGGGLVQPGGSLRLSCAASGFSLNAYSVNWVRQAPGKGLEWLGMIWGDGKIVYNSALKSRLTISKDSSKNTVYLQMNSLRAEDTAVYYCAGDGYYPYAMDNWGQGTTVTVSSASTKGPSVFPLAPSSKSTSGGTAALGCLVKDYFPEPVTVSWNSGALTSGVHTFPAVLQSSGLYSLSSVVTVPSSSLGTQTYICNVNHKPSNTKVDKKVEPKSCDKTHTCPPCPAPELAGAPSVFLFPPKPKDTLYITREPEVTCVVVDVSHEDPEVKFNWYVDGVEVHNAKTKPREEQYNSTYRVVSVLTVLHQDWLNGKEYKCKVSNKALPAPIEKTISKAKGQPREPQVYTLPPSRDELTKNQVSLTCLVKGFYPSDIAVEWESNGQPENNYKTTPPVLDSDGSFFLYSKLTVDKSRWQQGNVFSCSVMHEALHNHYTQKSLSLSPG
light: DIQLTQSPSSLSASVGDRVTITCRASKSVDSYGNSFMHWYQQKPGKAPKLLIYLASELESGVPSRFSGSGSGTDFTLTISSLQPEDFATYYCQQNNEDPRTFGGGTKVEIKRTVAAPSVFIFPPSDEQLKSGTASVVCLLNNFYPREAKVQWKVDNALQSGNSQESVTEQDSKDSTYSLSSTLTLSKADYEKHKVYACEVTHQGLSSPVTKSFNRGEC
TARC Release IC50 (A549 cells) (hIL-13 [9]): 0.9 nM

B5: Construct 107 (antibody, human IgG1, kappa, V domains shown)
VH: EVQLLESGGGLVQPGGSLRLSCAASGFSLHAYSVNWVRQAPGKGLEWLGMIWGDGKIVYNSALKSRLTISKDSSKNTVYLQMNSLRAEDTAVYYCAGDGYYPYAMDNWGQGTTVTVSS
VL: DIQLTQSPSSLSASVGDRVTITCRASKSVDSYGNSFMHWYQQKPGKAPKLLIYLASNLESGVPSRFSGSGSGTDFTLTISSLQPEDFATYYCQQNNEDPRTFGGGTKVEIKR
TARC Release IC50 (A549 cells) (hIL-13 [9]): 1.3 nM

B6: Construct 108 (antibody, human IgG1, kappa, V domains shown)
VH: EVQLLESGGGLVQPGGSLRLSCAASGFSLDAYSVNWVRQAPGKGLEWLGMIWGDGKIVYNSALKSRLTISKDSSKNTVYLQMNSLRAEDTAVYYCAGDGYYPYAMDNWGQGTTVTVSS
VL: DIQLTQSPSSLSASVGDRVTITCRASKSVDSYGNSFMHWYQQKPGKAPKLLIYLASNLESGVPSRFSGSGSGTDFTLTISSLQPEDFATYYCQQNNEDPRTFGGGTKVEIKR
TARC Release IC50 (A549 cells) (hIL-13 [9]): 1 nM

B7: Construct 110 (antibody, human IgG1, kappa, V domains shown)
VH: EVQLLESGGGLVQPGGSLRLSCAASGFSLSAYSVNWVRQAPGKGLEWLGMIWGDGKIVYNSALKSRLTISKDSSKNTVYLQMNSLRAEDTAVYYCAGDGYYPYAMDNWGQGTTVTVSS
VL: DIQLTQSPSSLSASVGDRVTITCRASKSVDSYGNSFMHWYQQKPGKAPKLLIYLASNLESGVPSRFSGSGSGTDFTLTISSLQPEDFATYYCQQNNEDPRTFGGGTKVEIKR
TARC Release IC50 (A549 cells) (hIL-13 [9]): 1 nM

B8: Construct 114 (antibody, human IgG1, kappa, V domains shown)
VH: EVQLLESGGGLVQPGGSLRLSCAASGFSLNQYSVNWVRQAPGKGLEWLGMIWGDGKIVYNSALKSRLTISKDSSKNTVYLQMNSLRAEDTAVYYCAGDGYYPYAMDNWGQGTTVTVSS
VL: DIQLTQSPSSLSASVGDRVTITCRASKSVDSYGNSFMHWYQQKPGKAPKLLIYLASNLESGVPSRFSGSGSGTDFTLTISSLQPEDFATYYCQQNNEDPRTFGGGTKVEIKR
TARC Release IC50 (A549 cells) (hIL-13 [9]): 1.1 nM
